{
  "source": "paper PMC9972897",
  "about": "(Science immunology, 2023)",
  "data": [
    {"molecular_target": "SD1-RBD of SARS-CoV-2 S (ancestral), aa 319-591 (SARS-CoV-2, ancestral (Wuhan-Hu-1; …, UniProt P0DTC2)", "values": [
      {"binder": "sd1.047 (antibody, V domains shown) VH: EVQLVESGGGVVEPGRSLRLSCVASGFPFKNYGMHWVRQAPGKGLEWMAVISYDGRLEYYAESVQGRFTISRDTSRKTLYLQMDSLRVDDTAVYYCAKDGVMGFCSGDDCTPPFDSWGQGTLVTVSS VL: QSALTQPASVSGSPGQSITISCTGTSSDVGGYNYVSWFQQYPGKAPQLLIYEVSNRPSGVSNRFSGSKSGNTASLTISGLQAEDEADYYCSSYAGSPYVFGIGTRVTVL", "binding result": "binds"},
      {"binder": "rbd.031 (antibody, V domains shown) VH: EVQLVESGGGVVQPGRSLRLSCAASGFTFKTYGMHWVRQAPGKGLEWVAVISYEGSNEYYAESVKGRFTISRDNSKNTLYLHMNSLRAEDTAVYYCAKGEYYYHSSTYYYLDYWGRGTLVTVSS VL: DIQMTQSPSTLSASVGDRVTITCRASQSISSWLAWYQQKPGKAPKVLIYDASSLQSGVPLRFSGSGSGTEFTLTISSLQPDDFATYYCQQYDTYWTFGQGTKVEIK", "binding result": "binds"},
      {"binder": "rbd.045 (antibody, V domains shown) VH: QVQLQESGPGLVKPSETLSLTCTVSGGAFRSFFWTWIRQPPGKGLEWIGNIYYSGSTNYNPSLKSRVTISQDMSENQFSLKLSSVTAADTAVYYCARSQWLRGNFDHWGQGILVTVSS VL: NFMLTQPHSVSESPGKTVTISCTATSGYIASNYVQWYQQRPGSAPTTVIYEDNQRPSGVPDRFSGSIDSSSNSASLTISGLKPEDEADYYCQSFDTAYAVFGGGTQLTVL", "binding result": "binds"},
      {"binder": "rbd.038 (antibody, V domains shown) VH: QVQLVQSGAEVKKPGASVKVSCKASGYTFSGYYMHWVRQAPGQGLEWVGWISPTSGGTKYAQKFQGRVTMTRDTSITTVYMELNRLRSDDTAVYYCAREPFPYCTSDICHSNYFYYYAMDVWGQGTTVTVSS VL: QSALTQPPSASGSPGQSVTISCTGSSSDLGDHNYVSWYQQHPGKAPKVMIYEVSKRPSGVPDRFSGSKSGNTASLTVSGLQAEDEADYYCSSYAGSLYVFGTGTKVTVL", "binding result": "binds"},
      {"binder": "rbd.048 (antibody, V domains shown) VH: EVQLVESGGGLVQPGGSLRLSCAASGFTVSSNYMTWVRQAPGKGLEWVSVIYSGGSTFYTDSVKGRFTISRDNSKNTLYLQMNSLRAEDTAVYYCARDVVYYGMDVWGQGTTVTVSS VL: DIQMTQSPSSLSASVGDRVTITCRASQSISSYLNWYQQKPGKAPKLLIYAASSLQSGVPSRFSGSGSGTDFTLTISSLQPEDFATYYCQESYSNSPYTFGQGTKLEIK", "binding result": "binds"},
      {"binder": "sd1.107 (antibody, V domains shown) VH: QVQLVQSGAEVKKPGSSVKVSCKASGGTFSSYAISWVRQAPGQGLEWMGGIIPMFGTTNYAQKFQGRVTITADESTSTAYMELSSLRSEDTAVYYCARVTHLNWRRGYEVGRISGAFDIWGQGTMVTVSS VL: not shown", "binding result": "binds"},
      {"binder": "rbd.049 (antibody, V domains shown) VH: QLQLQESGPGLVKPSETLSLSCTVSGGSISSKSDYWGWIRQSPGKGLEWIGSIYYTGTTYYNPSLKSRVSISLDKSKNQFSLKLNSLTAADTALYYCARDPSIAVATTVYFDAWGQGTLVTVSS VL: EIVLTQSPGTLSLSPGERATLSCRASESVKSNYLAWYQQKLGQPPRLLIFGASTRATGIPDRFSGSGSGTDFTLTISRLEPEDFAVYYCQQYHTSPPRYTFGQGTKLEIK", "binding result": "binds"},
      {"binder": "sd1.151 (antibody, V domains shown) VH: EVQLVESGGGLVKPGGSLRLSCAVSGFTFSNAWMTWVRQAPGKGLEWVGRIKTKPEGGTTDYATPVKGRFTISRDDSIDTLYLQMNSLKTEDTAVYYCSTFSSPDHWGQGTLVTVSS VL: not shown", "binding result": "binds"},
      {"binder": "sd1.150 (antibody, V domains shown) V domain 1: EVQLVESGGGVVQPGRSLRLSCAASGFTFSSHGMHWVRQAPGRGLEWVAVISFDGRNKFYVDSVKGRFTISRDNSKNTLYLHMNSLRAADTAVYYCAKDHDPDGSGSYFSNWFDAWGQGTLVTVSS V domain 2: SYELTQPPSVSVSPGQTASITCSGDKLGDKYAYWYRQKPGQSPVVVIYQDNKRPSGIPERFSGSNSGNTATLTISGTQAMDEADYYCQAWDTYSGVFGTGTQVTVL", "binding result": "binds"},
      {"binder": "sd1.102 (antibody, V domains shown) VH: QVQLVQSGAEVKKPGSSVKVSCKASGGTFSSYAISWVRQAPGQGLEWMGGIIPLYGTANYAQKFQGRVTITADESTSTTYMELSSLTSEDTAVYYCVRFRGGDYYYYYGMDVWGQGTTVTVSS VL: EIVMTQSPATLSVSPGESATLSCRASQTVSTNLAWYQQKPGQAPRLLIFGASTRATGIPARFSGSGSGTEFTLSISSLQSEDFAVYYCHQYNSRRTFGQGTKLEIK", "binding result": "binds"},
      {"binder": "sd1.034 (antibody, V domains shown) VH: EVQLVESGGGVVQPGRSLRLSCAASGFSFSNYGMHWVRQAPGKGLEWVAVISYDGSHKSFADSVKGRFTISRDNSKNTLNLQMNSLRREDTAVYYCATDQGGSLGYWGQGTLVTVSS VL: QSALTQPASVSGSPGQSITISCTGTSGDVGGYNYVSWYQHHPGKAPKLMIYDVSNRPSGVSNRFSGSKSGNTASLTISGLQAEDEADYYCSSYTSTSTSWVFGGGTKLTVL", "binding result": "binds"},
      {"binder": "sd1.108 (antibody, V domains shown) VH: QVQLVQSGAEVKKPGASVKVSCKASGYTFTSYYIHWVRQTPGQGLEWMGIINPRGGSTSYPQKFQGRVSMTRDTSTSTVFMELSSLRSDDTAVYYCAREHREDTAMDNQPSDSWGQGTLVTVSS VL: DIVMTQSPDSLSVSLGERATINCKSSRSVFYSSNNKSYLAWYQQKPGQPPKLLIYWASTRESGVRDRFSGSGSGTDFTLTISSLQAEDVAVYYCQQYYNTPYTFGQGTKLEIK", "binding result": "binds"},
      {"binder": "sd1.032 (antibody, V domains shown) VH: QVQLVQSGAEVKRPGSSVKVSCKASGGTFNNYAMTWVRQAPGQGLEWMGGIIPMLGTENYAQKFQGRVTITADESTSTAHMELSSLRSEDTAVYYCARLTVPTPHSYYSYGLDAWGQGTTVTVSS VL: QSALTQPASVSGSPGQSITISCTGTSSDVGSYNLVSWFQQHAGRAPKLMIYEGNKRPSGISNRFSGSKSGNTASLTISGLQAEDEADYYCCSYAGSSTHVFGTGTKVTVL", "binding result": "binds"},
      {"binder": "sd1.129 (antibody, V domains shown) VH: QVQLVQSGAEVKRPGSSVKVSCKASGGAFSNYAISWVRQAPGQGLEWMGGIIPIFGTTNYAQRFQGRVTISADESTGTAYMELSSLRFADTAIYYCARADAYSGSYYPSANWFDPWGQGTLVTVSS VL: EIVLTQSPATLSLSPGERATLSCRASQSVSNYLAWYQQKPGQAPRLLIYDASNRATGIPARFSGSGSGTDFTLTISSLEPEDFAVYYCQQRQNWPPGWTFGQGTKVEIK", "binding result": "binds"},
      {"binder": "sd1.132 (antibody, V domains shown) VH: QVQLVQSGTEVKKPGSSVKVSCKASGGTFSSYAISWVRQAPGQGLEWMGGIIPMFGAPNYAQKVQGRVTITADESTSTAYMELSSLRSEDTAVYYCARMEYSNSPGRGGYYFYSNGMDVWGQGTTVTVSS VL: EIVLTQSPATLSLSPGERATLSCRASQSVSTYLAWLQQKPGQAPRLLMYDASNRASGIPARFSGSGSGTEFTLTISSLEPEDFAVYYCQQRTYWPLTFGGGTKVEIK", "binding result": "binds"},
      {"binder": "rbd.043 (antibody, V domains shown) VH: QVQLVQSGAEVKKPGSSVKVSCKVSGGSFSNYGISWVRQAPGQGLEWMGGIIPLFGPADYAQKVQGRVTITADKSTSTAYMELRSLRSEDTAVYFCARGVEIVATIVGPLVREDHYYYYGMDVWGQGTTVTVSS VL: not shown", "binding result": "binds"},
      {"binder": "sd1.039 (antibody, V domains shown) VH: EVQLVQSGAEVKKPGESLKISCKASGYSFPTYWIGWVRQMPGKGLEWMGIIYPGDSDTRYSPSFQGQVTISADKSISTAYLQWSSLKASDTAIYYCARYGDSHIDSWGQGTLVTVSS VL: QSVLTQPRSASASLGASVTLNCTLSSGYSKYKVEWYQQRPGKGPRFLMRVGAGGIVGSKGDGIPDRFSVLGSGLNRYLIIKNIQQEDESDYHCGADHGSGSNFAYVVFGGGTKLTVL", "binding result": "binds"},
      {"binder": "sd1.127 (antibody, V domains shown) VH: EVQLVESGGALVKPGGSLTLSCVASGFTFSHAWMTWVRQAPGKGLEWVGRIKTKTEGGTIDYAAPLRGRFTISRDDSKNTLYLRMNSLKIEDTAKYYCTTHSSPDYWGQGTLVTVSS VL: DIQMTQSPSSLSASIGDRVTITCRASQGIGNSLLWYQQKRGKVPKLLIYAASTLQSGVPSRFSGSGSGTDFTLTISSLQPEDVATYYCQRYNSAPLTFGGGTKVEIK", "binding result": "binds"},
      {"binder": "sd1.100 (antibody, V domains shown) VH: QVQLQESGPGLVKPSQTLSLTCSVSGDSITSGNYYWSWIRQHPGKGLEWIGNIFHTGNTYYNPSLKSRVTISIDTSKNQFSLKLSSVTAADTALYYCARDHKRLEGDWFDPWGQGSLVTVSS VL: not shown", "binding result": "binds"},
      {"binder": "rbd.046 (antibody, V domains shown) VH: EVQLVESGGGVVQPGRSLRLSCAASGFTFSHYGMHWVRQAPGKGLEWVAVISYDGSNKYYADSVKGRFTISRDNSKSTLYLQMNSLRAEDTAVYYCAKGEWYYDIFTGYYPYWGQGTLVTVSS VL: not shown", "binding result": "binds"},
      {"binder": "sd1.033 (antibody, V domains shown) VH: QVQLVQSGAEVKKPGSSVKVSCKASGGVYSTYAVSWVRQAPGQGLEWIGGIIPMFGTANYAQNFQGRVTITADESTRTAYMEVSSLRSEDTAVYYCASPSAPTYYYDSSRYYSFDYWGQGTLVTVSS VL: EIVLTQSPGTLSLSPGERATLSCRASQSVSSNFLAWFQQKPGQPPRLLIYGASSRATGIPDRFSGSGSGTDFTLTISRLVPEDFAVYFCQQYGSSRYSFGQGTKLEIK", "binding result": "binds"},
      {"binder": "sd1.103 (antibody, V domains shown) VH: QVQLVQSGAEVKKPGSSMKVSCKASGGTLNNYAIIWVRQAPGQGLEWMGGIIPMFGAANYAQNFQGRVTITADESTRTAYLELSSLRSEDTAMYYCARVVIPYLGAHYYHYGVDVWGQGTTVTVSS VL: EIVLTQSPGTLSLSPGERATLSCRASQSVTSNYLAWYQQKPGQAPRLLIYGASSRAAGIPDRFNGSGSGTDFTLTISRLEPEDFAVYYCQQYGSSRYTFGQGTKLEIK", "binding result": "binds"},
      {"binder": "rbd.035 (antibody, V domains shown) VH: EVQLLESGGGLIEPGGSLRLSCAASGFPFNTFAMTWVRQPPGKGLEWVATISSRGDYTFYADFVKGRFSISRDNANNALWLDMSGLRAEDTALYYCAKGESGYDLYLYGLDLWGQGTTVTVSS VL: DIQMTQSPSSLSASVGDGVTITCRASQNINNYLSWYQKKAGKAPKLLIYGASTLHSGVPSRFSGSGSGTDFTLTISSLQPEDFASYYCQQNSPTPPWTFGQGTKVEIK", "binding result": "binds"}
    ]}
  ]
}
